# Experimental data: patent publication US20260265396A1
# Experiments:
# [1] = target: truncated hTfR1 of SEQ ID NO:89 (human) (UniProt P02786); assay: SPR, hTfR1 on CM5, bispecific molecule with scFv module injected
# [2] = target: His10-mTfR1 (SEQ ID NO:53) (mouse) (UniProt Q62351); assay: indirect ELISA, His10-mTfR1 captured on Ni-coated plate, hybridoma supernatant
# His10-mTfR1 (SEQ ID NO:53) (mouse), sequence (Q62351 other isoform, or with tags, fused parts or gaps limits assumed): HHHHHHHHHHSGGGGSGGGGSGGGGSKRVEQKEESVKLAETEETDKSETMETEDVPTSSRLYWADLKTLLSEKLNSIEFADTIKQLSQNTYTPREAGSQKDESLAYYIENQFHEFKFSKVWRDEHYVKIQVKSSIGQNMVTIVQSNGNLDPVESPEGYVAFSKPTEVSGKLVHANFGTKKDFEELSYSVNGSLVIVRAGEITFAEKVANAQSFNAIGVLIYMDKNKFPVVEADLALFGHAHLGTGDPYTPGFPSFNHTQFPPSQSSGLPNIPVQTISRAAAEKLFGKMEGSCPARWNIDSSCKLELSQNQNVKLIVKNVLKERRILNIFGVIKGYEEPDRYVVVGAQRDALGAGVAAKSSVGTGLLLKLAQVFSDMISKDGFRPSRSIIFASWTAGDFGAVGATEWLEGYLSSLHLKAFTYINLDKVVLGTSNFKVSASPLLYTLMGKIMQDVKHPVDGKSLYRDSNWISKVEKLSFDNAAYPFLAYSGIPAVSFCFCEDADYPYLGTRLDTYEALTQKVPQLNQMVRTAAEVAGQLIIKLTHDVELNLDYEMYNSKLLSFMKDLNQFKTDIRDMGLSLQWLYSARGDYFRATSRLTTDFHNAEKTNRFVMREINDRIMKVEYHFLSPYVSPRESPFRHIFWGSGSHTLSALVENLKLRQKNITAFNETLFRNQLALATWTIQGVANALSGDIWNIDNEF
# truncated hTfR1 of SEQ ID NO:89 (human), sequence (P02786 other isoform, or with tags, fused parts or gaps limits assumed): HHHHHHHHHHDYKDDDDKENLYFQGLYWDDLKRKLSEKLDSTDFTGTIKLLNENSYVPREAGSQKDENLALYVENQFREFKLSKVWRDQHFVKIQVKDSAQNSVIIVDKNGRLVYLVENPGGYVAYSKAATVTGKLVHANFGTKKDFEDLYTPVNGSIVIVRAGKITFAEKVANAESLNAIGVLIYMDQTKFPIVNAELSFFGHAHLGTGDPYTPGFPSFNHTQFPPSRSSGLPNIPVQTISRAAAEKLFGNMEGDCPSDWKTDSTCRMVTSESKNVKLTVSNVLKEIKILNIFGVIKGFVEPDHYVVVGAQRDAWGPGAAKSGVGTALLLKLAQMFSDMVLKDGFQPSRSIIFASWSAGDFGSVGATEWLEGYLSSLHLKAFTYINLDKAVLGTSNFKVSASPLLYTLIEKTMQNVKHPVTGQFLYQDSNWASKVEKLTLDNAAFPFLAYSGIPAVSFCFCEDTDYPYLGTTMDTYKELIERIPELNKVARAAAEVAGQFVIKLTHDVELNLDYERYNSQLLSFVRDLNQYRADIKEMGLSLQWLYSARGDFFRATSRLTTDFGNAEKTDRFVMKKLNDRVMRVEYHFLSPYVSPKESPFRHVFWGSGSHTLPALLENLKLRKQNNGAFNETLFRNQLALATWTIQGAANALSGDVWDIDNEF
Binder,Kd [1],OD450 (indirect ELISA) [2]
"bispecific binding molecule (format of WO2022/258841) with h26D3 scFv module (bispecific antibody, part only; not given: Cargo antibody chains, linkers, domain order, V domains shown, not shown: another chain or arm of the molecule; large carriers; small tags and cut ends) VH: EVQLVQSGAEVKKPGSSVKVSCKASGYIFTDYNMDWVRQAPGQGLEWIGDINPDYDTTSYNEKFKGRATLTVDKSTSTAYMELSSLRSEDTAVYYCARGGYSGSSYYHPMDYWGQGTLVTVSS VL: DIQMTQSPSSVSASVGDRVTITCKSSQSLLYSTNQKNYLAWYQQKPGKAPKLLIYWASTRESGVPSRFSGSGSGTDFTLTISSLQPEDFATYYCQQYFIYPRTFGQGTKVEIK",10 nM,–
"bispecific binding molecule (format of WO2022/258841) with h26D3 HC6 scFv module (bispecific antibody, part only; not given: Cargo antibody chains, linkers, domain order, V domains shown, not shown: another chain or arm of the molecule; large carriers; small tags and cut ends) VH: EVQLVQSGAEVKKPGSSVKVSCKASGYIFTDYNMDWVRQAPGQGLEWIGDINPDADTTSYNEKFKGRATLTVDKSTSTAYMELSSLRSEDTAVYYCARGGYSGSSYYHPMDYWGQGTLVTVSS VL: DIQMTQSPSSVSASVGDRVTITCKSSQSLLYSTNQKNYLAWYQQKPGKAPKLLIYWASTRESGVPSRFSGSGSGTDFTLTISSLQPEDFATYYCQQYFIYPRTFGQGTKVEIK",100 to 200 nM,–
"bispecific binding molecule (format of WO2022/258841) with h26D3 LC5 scFv module (bispecific antibody, part only; not given: cargo antibody chains, linkers, format, V domains shown, not shown: another chain or arm of the molecule; large carriers; small tags and cut ends) VH: EVQLVQSGAEVKKPGSSVKVSCKASGYIFTDYNMDWVRQAPGQGLEWIGDINPDYDTTSYNEKFKGRATLTVDKSTSTAYMELSSLRSEDTAVYYCARGGYSGSSYYHPMDYWGQGTLVTVSS VL: DIQMTQSPSSVSASVGDRVTITCKSSQSLLYSTNQKNYLAWYQQKPGKAPKLLIYWASTRESGVPSRFSGSGSGTDFTLTISSLQPEDFATYYCQQAFIYPRTFGQGTKVEIK",400 to 500 nM,–
"bispecific binding molecule (format of WO2022/258841) with h26D3 LC1 scFv module (bispecific antibody, part only; not given: Cargo antibody chains, linkers, domain order, V domains shown, not shown: another chain or arm of the molecule; large carriers; small tags and cut ends) VH: EVQLVQSGAEVKKPGSSVKVSCKASGYIFTDYNMDWVRQAPGQGLEWIGDINPDYDTTSYNEKFKGRATLTVDKSTSTAYMELSSLRSEDTAVYYCARGGYSGSSYYHPMDYWGQGTLVTVSS VL: DIQMTQSPSSVSASVGDRVTITCKSSQSLLASTNQKNYLAWYQQKPGKAPKLLIYWASTRESGVPSRFSGSGSGTDFTLTISSLQPEDFATYYCQQYFIYPRTFGQGTKVEIK",40 nM,–
"mouse monoclonal antibody 26D3 (antibody, mouse IgG2a, V domains shown) VH: EVQLQQFGVELVKPGASVKISCKASGYIFTDYNMDWVKQSHGKSLEWIGDINPDYDTTSYNEKFKGKATLTVDKSSSTAYMELRSLTSEDTAVYYCARGGYSGSSYYHPMDYWGQGTSVTVSS VL: DIVMSQSPSSLAVSVGEKITMSCKSSQSLLYSTNQKNYLAWYQQKPGQSPELLIYWASTRESGVPDRFTGSGSGTDFTLTISNVRAEDLAVYYCQQYFIYPRTFGGGTKLEIK",–,> 0.2 OD
